Measured values published in US20030153523, “Methods for identifying RNA binding compounds” (University of Medicine and Dentistry of New Jersey, published 2003).

Biological target: T1, Tat (48-57) peptide (HIV-1)
T1 chain: GRKKRRQRRR

GGCAGAUCUGAGCCUGGGAGCUCUCUGCC (ssRNA) [TAR RNA (wild type)]
Kd: 727 nM
